Consider two molecules from publication doi:10.1101/851261 (2019).

Positions of bridges follow the written chain, without caps; N, C: chain ends. No end group written: not given here.

The term IC50 denotes the concentration that gives 50% inhibition.

Assay [1] concerns the target T1, AjKissR1 (Apostichopus japonicus).
T1 chain: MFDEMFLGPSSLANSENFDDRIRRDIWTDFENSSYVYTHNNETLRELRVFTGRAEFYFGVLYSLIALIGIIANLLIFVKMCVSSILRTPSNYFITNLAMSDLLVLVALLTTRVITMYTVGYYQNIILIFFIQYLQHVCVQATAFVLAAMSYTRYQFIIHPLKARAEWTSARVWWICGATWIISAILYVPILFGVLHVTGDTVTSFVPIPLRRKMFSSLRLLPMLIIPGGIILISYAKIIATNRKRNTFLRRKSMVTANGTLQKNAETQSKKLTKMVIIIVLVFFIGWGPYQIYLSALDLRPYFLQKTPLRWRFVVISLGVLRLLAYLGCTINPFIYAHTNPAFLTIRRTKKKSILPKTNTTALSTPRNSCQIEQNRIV
In words: FACS; competition with 1.0 uM FITC-AjKiss1a. (In general: Flow cytometry measures light scatter and fluorescence of single cells or particles in a stream.)

Assay [2] concerns the target T2, AjKissR2 (Apostichopus japonicus).
T2 chain: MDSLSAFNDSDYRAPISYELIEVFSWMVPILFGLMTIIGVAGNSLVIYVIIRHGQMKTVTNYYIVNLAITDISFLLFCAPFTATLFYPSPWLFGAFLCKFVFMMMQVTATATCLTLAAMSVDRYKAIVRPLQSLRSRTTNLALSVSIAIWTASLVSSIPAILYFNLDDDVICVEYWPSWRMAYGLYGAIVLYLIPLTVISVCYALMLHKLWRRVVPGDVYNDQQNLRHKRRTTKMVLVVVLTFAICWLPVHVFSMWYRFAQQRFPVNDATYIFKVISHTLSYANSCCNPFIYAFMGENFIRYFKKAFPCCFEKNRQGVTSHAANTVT
Description: FACS; competition with 1.0 uM FITC-AjKiss1a.

As for AGSLDCLEASCEDVERRGRQPNRNAHYRTLPF-NH2 (disulfide 6-11 (inferred)) [AjKiss1a], the IC50 in assay [1] was found to be 0.568 µM.

Turning to SAVKNKNKSRARPPLLPF-NH2 [AjKiss1b], the IC50 in assay [2] amounted to 1.25 µM.
